Substrate: Nc1ncnc2c1ncn2[C@@H]1O[C@H](COP(=O)(O)O)[C@@H](OP(=O)(O)O)[C@H]1O
Assay: purified protein
Format: biochemical, Rattus norvegicus
Details: 5 mM p-nitrophenyl sulfate, pH 7.0, 37 °C

B1: AST-IV (Rattus norvegicus) (protein)
chain: MEFSRPPLVHVKGIPLIKYFAETIGPLQNFTAWPDDLLISTYPKSGTTWMSEILDMIYQGGKLEKCGRAPIYARVPFLEFKCPGVPSGLETLEETPAPRLLKTHLPLSLLPQSLLDQKVKVIYIARNAKDVVVSYYNFYNMAKLHPDPGTWDSFLENFMDGEVSYGSWYQHVKEWWELRHTHPVLYLFYEDIKENPKREIKKILEFLGRSLPEETVDSIVHHTSFKKMKENCMTNYTTIPTEIMDHNVSPFMRKGTTGDWKNTFTVAQNERFDAHYAKTMTDCDFKFRCEL
Question: How did the Km turn out when B1 was run?
Answer: Its Km is 25.3 µM.

— PMC3901155
